# Laboratory results: the nanobody polyreactivity screen of Harvey et al. (2022)
# Test: yeast display, Sf9 membrane polyspecificity reagent, FACS + sequencing; frameworks hold sequencing errors
# In short: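 After 36–48 hours of galactose induction, yeast (Saccharomyces cerevisiae BJ5465) displaying a synthetic nanobody library were stained at 4 °C for 1 hour with 10% biotinylated, detergent-solubilized Sf9 membrane reagent. Streptavidin microbeads enriched the stained cells before FACS sorting into low and high (top ~1%) gates on anti-HA and streptavidin fluorescence. Each clone's polyreactivity label reflects its gate of origin.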
row,Sequence,polyreactivity (PSR sort gate)
1,QVQLVESGGGLVQAGGSLRLSCAASGITFYIYAMGCYRHAPGKERELVAAISSTGGSTYYADSVKGSFTISRDNAKNTVYLQMNSLKPEDNAVYYCNAVFRGTGDYWGQGTQVTVSS,high polyreactivity
2,QVQLVESGGGLVQAGGSLRLSCAASGITFYKNAMGWYRPAPGKERELVAAISGRGGTTYYADSVKGRFTLSRDNAKNTVYVQMNSLKPEDTAVYYCNTVRWAWPYLKFDYWGQGTQVTVSS,high polyreactivity
3,QVQLVESGGGLVQAGGSLRLSCAASGITFYKYDMGCYRQATGKERELVAAISFRGGNTNYADSVKGRFTISRDNAKNTVYLQMTSLKPEDTAVYYCAAYSYTWFYEYGYWGLGTQVTVSS,high polyreactivity
4,QVQLVESGGGLVQAGGSLRLSCAASGITFYLNAMGWYRQAPGKDRELVADITVSGGSTYYADSVKGRFTISRDNAKNTVYLQMNSLKPEDTAVYYCAADLTISYSQEYYYWGQGTQVTVSS,low polyreactivity
5,QVQLVESGGGLVQAGGSLRLSCAASGITFYLNAMGWYRQAPGKERELVADITVSGGSTYYADSVKGRFTISRDNAKNTVYLQMNSLKREDTAVYYCAADLTISYSQEYYYWGQGTQVTVSS,low polyreactivity
6,QVQLVESGGGLVQAGGSLRLSCAASGITFYLYAMGWYRQAPGKERELVASITTDDSTNYADSVKGRFTISRDNAKNTVYLLMNSLKPEDTAVYYCATASYHRHHHGYDYWGQGTQVTVSS,low polyreactivity
7,QVQLVESGGGLVQAGGSLRLSCAASGITFYLYVMGWYRQAPGKERELVAAISSGGSTYYADSVKGRFTISRDNAKNTVYLQMNSLKPEDTAVYYCAADVARYLHYSYHEDYYWGQGTQVTVSS,low polyreactivity
8,QVQLVESGGGLVQAGGSLRLSCAASGITFYPYAMGWYRQAPGKERELVAAISRRGGSTNYADSVKGRFTISRDNAKNTVYLQMNSLKPEDTAVYYCNRDYPIGYRQDPVYYWGQGSQVTVSS,high polyreactivity
9,QVQLVESGGGLVQAGGSLRLSCAASGITFYQYAMGWYRQAPGTETELVAGISYSGGSTYYADSVKGRFTISRDNAKNTVYLQMNSLKPEDTAVYYCAAVQPVGLYPRTKYYYWGQGTQVTVSS,high polyreactivity
10,QVQLVESGGGLVQAGGSLRLSCAASGITFYRNARGWYRQAPGNEMELVAAITWNGGRTYYADSVKGRVTISRDNAKNTVDLQMNSLKPEDTAVYDCAADSGTRNLASYRYYYWGQGTLVTVSS,low polyreactivity
11,QVQLVESGGGLVQAGGSLRLSCAASGITFYRYAMGWYRQAPGKERALVAAISWRSGSTNYADSVKGRFTISRDNAKNTVYLQMNSLKPADTAVYYCAARVADYPLFGGSSYNRMEYWGQGTQVTVTS,low polyreactivity
12,QVQLVESGGGLVQAGGSLRLSCAASGITFYSNAMGWYRQAPGKERELVARISSSGGSTYYADSVKGRFTISRDNAKNTVYLQMNSLKPEDTAVYYCAARRLWVRGYNYWGQGTQVTVSS,high polyreactivity
13,QVQLVESGGGLVQAGGSLRLSCAASGITFYSYAMGWYRQAPGKEMELVAAITRSGGSTYYADSVKGRFTISRDNAKNTVYLQMISLKPEDTAVYYCAAEEGRVFSGGYEYWGQGTQVTVSS,high polyreactivity
14,QVQLVESGGGLVQAGGSLRLSCAASGITFYSYAMGWYRQAPGKERELVAAISSSGTTYYADSVKGRFTISRDNAKNTVYLQMNSLKPEDTAVYYCAVDSYYKYDYWGQGTQVTVSS,low polyreactivity
15,QVQLVESGGGLVQAGGSLRLSCAASGITFYSYAMGWYRQAPGKERELVAAISTTVGSTYYADSVKGRFTISRDNAKNTVYLQMNSLKPEDTAVYYCNAYRVYAWIEYNYWGQGTQVTVSS,low polyreactivity
16,QVQLVESGGGLVQAGGSLRLSCAASGITFYVNAMGWYRQAPGKERELVAAISNGGSTNYADSVKGRFTISRDNAKNTVYLQMNSLKPEDTAVYYCAARPSYGRYRYYYWGQGTQVTVSS,high polyreactivity
17,QVQLVESGGGLVQAGGSLRLSCAASGITFYVYAMGGSRQAPGKERELVAAMTRSGGITSYADSVKGRFTISRDNAKNTGYLQMNSLKPEDTAVYYCAAERTNQHYHIQGVGYWGQGTQVTVSS,low polyreactivity
18,QVQLVESGGGLVQAGGSLRLSCAASGITFYWYAMGWYRQAPGKDRELVASITGNGGGTSYADSVKGRFTIARDNAKNTVYLQMNSLKPEDTAVYYCNTSVGGKEYDSWGQGTQVTVTS,low polyreactivity
19,QVQLVESGGGLVQAGGSLRLSCAASGITFYWYAMGWYRQAPGKERELVARISSTGGSTYYADSVKGRFTISRDNAKNTVYLQLNSLKPEDTAVYYCNAVGRLYLYGSWGQGTQVTLSS,high polyreactivity
20,QVQLVESGGGLVQAGGSLRLSCAASGITFYWYTMGWYRQAPGKERELVADIDGDGGSTYYADSVKGRFTISRDNAKNTVYLQMNSLKPEDTAVYYCAAQVWPWGYDYWGQGTQVTVSS,high polyreactivity
21,QVQLVESGGGLVQAGGSLRLSCAASGITFYYNAMGWYRQAPGKERELVAAISDGSSTNYADSVKGRFTISRDNAKNTVYLQMNSLKPEDTAVYYCNASWSFPVSGYESRSPGKLDYWGQGTQVTVYS,low polyreactivity
22,QVQLVESGGGLVQAGGSLRLSCAASGITFYYNAMGWYRQAPGKERELVATINDSDGSTYADSVKGRFTISRDNAKNTVYLQMNSLKPEDTAVYYCNAQTRAGYYFGYGYWGQGTQVTVSS,low polyreactivity

row,Sequence,polyreactivity (PSR sort gate)
1,QVQLVESGGGLVQAGGSLRLSCAASGITFYYYAMGWYRQAPGKERELVAAISDNGSRTYYADSVKGRFTISRDNAKNTVYFQMNSLKPEDTAVYYCAADWFYTNVRYRYAYGGYYWGQGTQVTVSS,high polyreactivity
2,QVQLVESGGGLVQAGGSLRLSCAASGITFYYYAMGWYRQAPGKERELVAAISRSGGRTYYADSVKGRFTISRDNAKNTVYLQMNSLKPEDTAVYYCAAVRYQGGDSSIEYDYWGQGTQVTVSS,high polyreactivity
3,QVQLVESGGGLVQAGGSLRLSCAASGITFYYYAMGWYRQAPGKERELVAAISSRGGSTYYADSVKGRFTISRDNAKNTVYLQMNSLKPEDTAVYYCAALYDYWGQGTQVTVSS,high polyreactivity
4,QVQLVESGGGLVQAGGSLRLSCAASGITFYYYDMGWYRLAPGKERELVAAISWSGGRTYYADSVKGRFTISRDNEKNTVYLQMNSLKPEDTAVYYCASGYYVYHFVSLYGGDYWGQGTQVTVSS,high polyreactivity
5,QVQLVESGGGLVQAGGSLRLSCAASGITGHNAMGWYIQAPGKERELVARISSGGRTNYADSVKGRFTISRDNAKNTVYLQMNSLKPEDTAVYYCAAGFRVGSFLRYNYWGQGTQVTVSS,high polyreactivity
6,QVQLVESGGGLVQAGGSLRLSCAASGITIDVYGMGWYRQAPGKERELVASIRRRGGSTYYADSVKGRFTISRDNAKNTVYLQMNSLKPEDTAVYYCAAVPSDGHRIWSWDPYPEYDYWGQGTQVTVSS,low polyreactivity
7,QVQLVESGGGLVQAGGSLRLSCAASGITIDYYAMGWYRQAPGKERELVAAISSVGNTNYADSVKGRFTISRDNAKNTVYLQMNSLKPEDTAVYYCATYAYYLYHVGTAYDYWGQGTQVTVSS,high polyreactivity
8,QVQLVESGGGLVQAGGSLRLSCAASGITIGSNVMGWYRQAPGKERELVAAISQSGGRTYYADSVKGRFTISRDNAKNTVYLQMNSLKPEDTAVYYCAKRQRSFYGRPMGDYWGQGTQVTVSS,high polyreactivity
9,QVQLVESGGGLVQAGGSLRLSCAASGITIKRYAMGWYRQAPGKEREFVATISQSGTSTYYADSVKGRFTISRDNAKTTVYLQMISLKPEDTAVYYCAADFIGYWYGYYSWGQGTQVTVSS,low polyreactivity
10,QVQLVESGGGLVQAGGSLRLSCAASGITIPVYMGWYRQAPGKERELVASISTIGGTTYYADSVKGRFTISRDNAKNTVYLQMNSLKPEDTAVYYCAADHPWSWYDYWGQGTQVTVSS,low polyreactivity
11,QVQLVESGGGLVQAGGSLRLSCAASGITIVLYAMGWYRQAPGQERQLVAAINIDGNTNYADSVKGRFTISRDNAKNTVYLQMNSLKPEDTAVYYCAATFVPAQSRYTGSKYDYWGQGTQVTVSS,low polyreactivity
12,QVQLVESGGGLVQAGGSLRLSCAASGITIVLYTMGWYRQAPGKEREFVAGITRGGSTYYADSVKGRFTISRDNAKNTVYLQMNSLKPEDTSVYYCAARPRFLRASVEYDYWGQGTQVTVSS,high polyreactivity
13,QVQLVESGGGLVQAGGSLRLSCAASGITIVNYVMGWYRQAPGKERELVAAISIGGGTYYADSVKGRFTISRDNEKNTVYLQMNSLKPEDTAVYYCNASYGGLSFYIGVYVTGYDYWGQGTQVTVSS,low polyreactivity
14,QVQLVESGGGLVQAGGSLRLSCAASGITIYDYTMGWYRQAPGKERELVAVITSAGSTYYADSVKGRFTISRDNAKNTVYLQMNSLKPEDTAVYYCAAVIVSRGRKYRLDYWGQGTQVTVSS,high polyreactivity
15,QVQLVESGGGLVQAGGSLRLSCAASGITIYGYAMGWYRQAPGKERELVAAITRSGGGTYYADSVKGRFTISRDNEKNTVYLQMISLKPEDTAVYYCAADSYSQYTMDYWGQGTQVTVSS,high polyreactivity
16,QVQLVESGGGLVQAGGSLRLSCAASGITLAGYVMGWYRQAPGKERELVADISSSGDSTYYADSVKGRFTISRDNAKNTVYLQMISLKPEDTAVYYWAAEEIIPLIYKGYPFDYWGQGTQVTVSS,low polyreactivity
17,QVQLVESGGGLVQAGGSLRLSCAASGITLGYYAMGWYRQAPGKERELVAAISYRGGNTYYADSVKGRFTISRDNAKNTVYLQRNSLKPEDTAVYYCNADLGYESGWWSKYDYWGQGTQVTVSS,low polyreactivity
18,QVQLVESGGGLVQAGGSLRLSCAASGITLGYYVMGWYRQAPGKERELVAAISSSGGRTYYADSVKGRFTISRDNAKNTVYLQMNSLKPEDTAVYYCAADLGRGIYDYWGQGTQVTVSS,low polyreactivity
19,QVQLVESGGGLVQAGGSLRLSCAASGITLHHNAMGWYRQAPGKERELVAAITSNGGSTYYADSVKGRFTISRDNAKNTVYLQMNSLKPEDTAVYYCARDSKRLARYYYWGQGTQVTVSS,low polyreactivity
20,QVQLVESGGGLVQAGGSLRLSCAASGITLHYYAMGWYRQAPGKERELVATISRSGGSTYYADSVKGRFTISRDNAKNTVYLQMNSLKPEDTAVYYCAARSWGGYDSRGYWGQGTQVTVSS,high polyreactivity
21,QVQLVESGGGLVQAGGSLRLSCAASGITLLYYAMGWYRQAPGKERELVAAISRRGGSTYYADSVKGRFTISRDNAKNTVYLQMNSLKPEDTAVYYCAAYSPYGGYHYLYDYWGQGTEVTVSS,high polyreactivity
